The results in this text go back to the supplement of paper PMC9112550, “Optimization of the antimicrobial peptide Bac7 by deep mutational scanning” (BMC Biology, 2022).

The data set has as its system Escherichia coli TOP10. As to the kind of experiment: shrunken log2 fold change of peptide-encoding DNA abundance (4.5 h post-induction vs induction); higher = less antimicrobial activity (less host growth inhibition). Conditions: time post-induction: 4.5 h; library: site-saturation at positions 5, 18, 19, 20.
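Also: peptides expressed intracellularly from a pBAD plasmid library in pooled LB shake-flask culture, induced with 0.3% L-arabinose, DNA abundance read by NGS, three biological replicates, DESeq2 with apeglm shrinkage.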

RRIRERPPRLPRPRPRPGFIPRP: the “shrunken log2 fold change” value was -0.256. RRIRQRPPRLPRPRPRPQDWPRP: the “shrunken log2 fold change” value was -0.146. Next, RRIRDRPPRLPRPRPRPNYDPRP: -0.211; RRIRRRPPRLPRPRPRPRKIPRP: 0.405.

Consider RRIRARPPRLPRPRPRPPRQPRP, for which the “shrunken log2 fold change” value was 0.769. As to RRIRLRPPRLPRPRPRPMPRPRP, the “shrunken log2 fold change” value was 0.291.

With RRIRPRPPRLPRPRPRPGYRPRP, the “shrunken log2 fold change” value was -0.051.

As for RRIRPRPPRLPRPRPRPQIAPRP, the “shrunken log2 fold change” value was determined as 0.115. In the case of RRIRLRPPRLPRPRPRPCPFPRP, the “shrunken log2 fold change” value is -0.353. Next, RRIRIRPPRLPRPRPRPARYPRP: -0.264. On to RRIRWRPPRLPRPRPRPHLHPRP, for which the “shrunken log2 fold change” value is -0.043. In the case of RRIRQRPPRLPRPRPRPQAAPRP, the “shrunken log2 fold change” value turned out to be 0.0499. The figure for RRIRSRPPRLPRPRPRPFKAPRP is -0.0415; for RRIRGRPPRLPRPRPRPIHGPRP it is -0.161; for RRIRCRPPRLPRPRPRPQYRPRP it is -2.05.

Turning to RRIRTRPPRLPRPRPRPTMDPRP, the “shrunken log2 fold change” value was -0.436. In the case of RRIRMRPPRLPRPRPRPFRGPRP, the “shrunken log2 fold change” value was -0.205. Next, RRIRHRPPRLPRPRPRPEENPRP: 0.0237; RRIRWRPPRLPRPRPRPVTYPRP: 0.186; RRIRQRPPRLPRPRPRPTWYPRP: -0.174.

Regarding RRIRGRPPRLPRPRPRPVAQPRP, the “shrunken log2 fold change” value amounted to 0.719. Regarding RRIRNRPPRLPRPRPRPWILPRP, the “shrunken log2 fold change” value was -0.146. Regarding RRIRGRPPRLPRPRPRPNWFPRP, the “shrunken log2 fold change” value was found to be 0.469. For the sequence RRIRCRPPRLPRPRPRPHFFPRP, the “shrunken log2 fold change” value is -0.633. Take RRIRPRPPRLPRPRPRPMHTPRP: the “shrunken log2 fold change” value is -0.0538. The figure for RRIRWRPPRLPRPRPRPLKHPRP is -0.623; for RRIRKRPPRLPRPRPRPYLTPRP it is -0.413. Next, RRIRQRPPRLPRPRPRPIPIPRP: -0.104; RRIRHRPPRLPRPRPRPIICPRP: -0.168. The figure for RRIRLRPPRLPRPRPRPAYNPRP is -0.119; for RRIRKRPPRLPRPRPRPRGKPRP it is 0.126; for RRIRYRPPRLPRPRPRPHWVPRP it is 0.0405. As for RRIRYRPPRLPRPRPRPWFQPRP, the “shrunken log2 fold change” value was -0.00061. RRIRRRPPRLPRPRPRPKAVPRP: the “shrunken log2 fold change” value was 0.0693. For the sequence RRIRSRPPRLPRPRPRPPEDPRP, the “shrunken log2 fold change” value was found to be 0.0304.

RRIRWRPPRLPRPRPRPGAIPRP: the “shrunken log2 fold change” value is -0.096. The figure for RRIRARPPRLPRPRPRPGPEPRP is 1.61; for RRIRIRPPRLPRPRPRPMMHPRP it is -0.59.

Take RRIRPRPPRLPRPRPRPHYMPRP: the “shrunken log2 fold change” value is -0.747. In the case of RRIRMRPPRLPRPRPRPPHSPRP, the “shrunken log2 fold change” value stood at 0.851. Turning to RRIRKRPPRLPRPRPRPRYIPRP, the “shrunken log2 fold change” value was -0.268. Next, RRIRMRPPRLPRPRPRPFCPPRP: 0.0248; RRIRPRPPRLPRPRPRPWCGPRP: 0.0629; RRIRLRPPRLPRPRPRPSCQPRP: -0.256.

Regarding RRIRSRPPRLPRPRPRPRACPRP, the “shrunken log2 fold change” value came out at 0.403.

Regarding RRIRCRPPRLPRPRPRPHEFPRP, the “shrunken log2 fold change” value was -0.267. The figure for RRIRRRPPRLPRPRPRPCRCPRP is -0.00341; for RRIRPRPPRLPRPRPRPMPQPRP it is -0.0158. Turning to RRIRQRPPRLPRPRPRPQPWPRP, the “shrunken log2 fold change” value was 0.141. Next, RRIRPRPPRLPRPRPRPIMIPRP: -0.169. Next, RRIRWRPPRLPRPRPRPVWHPRP: 0.387; RRIRDRPPRLPRPRPRPNISPRP: -0.266. On to RRIRGRPPRLPRPRPRPAIGPRP, for which the “shrunken log2 fold change” value worked out at 0.591.

Consider RRIRSRPPRLPRPRPRPMDFPRP, for which the “shrunken log2 fold change” value was -0.215. As to RRIRCRPPRLPRPRPRPVFIPRP, the “shrunken log2 fold change” value was -0.612. Next, RRIRSRPPRLPRPRPRPNCTPRP: -0.531; RRIRGRPPRLPRPRPRPQFAPRP: 0.273. The figure for RRIRTRPPRLPRPRPRPPSSPRP is -0.00871; for RRIRVRPPRLPRPRPRPSVVPRP it is 0.00363. RRIRVRPPRLPRPRPRPMLHPRP: the “shrunken log2 fold change” value is -0.192. Next, RRIRNRPPRLPRPRPRPTIQPRP: -0.213. The figure for RRIRKRPPRLPRPRPRPRDHPRP is 0.494; for RRIRCRPPRLPRPRPRPAGLPRP it is 0.206; for RRIRCRPPRLPRPRPRPYLDPRP it is -0.575. For RRIRERPPRLPRPRPRPSVCPRP, the “shrunken log2 fold change” value is -0.0246. The figure for RRIRMRPPRLPRPRPRPYAFPRP is -0.0624. Take RRIRMRPPRLPRPRPRPPHYPRP: the “shrunken log2 fold change” value was 0.728. The figure for RRIRCRPPRLPRPRPRPWFGPRP is -0.374; for RRIRPRPPRLPRPRPRPPNIPRP it is -0.414; for RRIRNRPPRLPRPRPRPKLSPRP it is 0.0328. The figure for RRIRNRPPRLPRPRPRPQWHPRP is -0.481; for RRIRSRPPRLPRPRPRPTCFPRP it is 0.284; for RRIRWRPPRLPRPRPRPRNRPRP it is -0.0206. The figure for RRIRTRPPRLPRPRPRPNSLPRP is 0.0607. In the case of RRIRQRPPRLPRPRPRPQSPPRP, the “shrunken log2 fold change” value was -0.0301. As for RRIRHRPPRLPRPRPRPFCPPRP, the “shrunken log2 fold change” value was -0.772. RRIRARPPRLPRPRPRPWTLPRP: the “shrunken log2 fold change” value was -0.256.

RRIRERPPRLPRPRPRPRHPPRP: the “shrunken log2 fold change” value was -0.289. The figure for RRIRRRPPRLPRPRPRPYYHPRP is -0.645.

RRIRMRPPRLPRPRPRPQLWPRP: the “shrunken log2 fold change” value turned out to be 0.998. For RRIRARPPRLPRPRPRPPCLPRP, the “shrunken log2 fold change” value was 0.224. The figure for RRIRPRPPRLPRPRPRPRFRPRP is 0.217; for RRIRTRPPRLPRPRPRPPVRPRP it is 0.558; for RRIRTRPPRLPRPRPRPIWNPRP it is -0.169. The figure for RRIRPRPPRLPRPRPRPPAQPRP is 0.57; for RRIRFRPPRLPRPRPRPTFNPRP it is -0.279.

In the case of RRIRSRPPRLPRPRPRPSEIPRP, the “shrunken log2 fold change” value was 0.0398. Take RRIRLRPPRLPRPRPRPAGWPRP: the “shrunken log2 fold change” value was 0.712. For RRIRVRPPRLPRPRPRPDNRPRP, the “shrunken log2 fold change” value is -0.00604. As to RRIRRRPPRLPRPRPRPFPQPRP, the “shrunken log2 fold change” value was 0.441.

In the case of RRIRPRPPRLPRPRPRPQVSPRP, the “shrunken log2 fold change” value was -0.00288. The figure for RRIRHRPPRLPRPRPRPVLFPRP is -0.0987; for RRIRLRPPRLPRPRPRPDWFPRP it is -0.173.

On to RRIRFRPPRLPRPRPRPFGKPRP, for which the “shrunken log2 fold change” value was -0.00111. The figure for RRIRFRPPRLPRPRPRPINTPRP is -0.761. As for RRIRFRPPRLPRPRPRPWCEPRP, the “shrunken log2 fold change” value was -0.429.

Turning to RRIRYRPPRLPRPRPRPWYMPRP, the “shrunken log2 fold change” value was -0.838. The figure for RRIRPRPPRLPRPRPRPVNRPRP is -0.0842; for RRIRMRPPRLPRPRPRPWFLPRP it is 0.0242. On to RRIRDRPPRLPRPRPRPMKRPRP, for which the “shrunken log2 fold change” value is 0.108. For RRIRLRPPRLPRPRPRPHRRPRP, the “shrunken log2 fold change” value was found to be 0.0082. Next, RRIRFRPPRLPRPRPRPKMNPRP: -0.345; RRIRTRPPRLPRPRPRPYMEPRP: 2.39; RRIRCRPPRLPRPRPRPITGPRP: -0.213. As to RRIRRRPPRLPRPRPRPMRWPRP, the “shrunken log2 fold change” value was found to be 0.638. The figure for RRIRLRPPRLPRPRPRPVRYPRP is -0.162; for RRIRYRPPRLPRPRPRPSFGPRP it is -0.522. The figure for RRIRHRPPRLPRPRPRPEPNPRP is 0.0235. The figure for RRIRHRPPRLPRPRPRPIIQPRP is -0.348.

Consider RRIRMRPPRLPRPRPRPTEYPRP, for which the “shrunken log2 fold change” value was -0.289.

Turning to RRIRCRPPRLPRPRPRPVEHPRP, the “shrunken log2 fold change” value was 0.0272.

Regarding RRIRDRPPRLPRPRPRPMINPRP, the “shrunken log2 fold change” value came to 0.0491. On to RRIRYRPPRLPRPRPRPRFDPRP, for which the “shrunken log2 fold change” value was -0.51. The figure for RRIRWRPPRLPRPRPRPECKPRP is 0.685. The figure for RRIRRRPPRLPRPRPRPFVRPRP is -0.174; for RRIRGRPPRLPRPRPRPMGEPRP it is 0.902. On to RRIRYRPPRLPRPRPRPPDGPRP, for which the “shrunken log2 fold change” value amounted to 0.176. The figure for RRIRCRPPRLPRPRPRPNCTPRP is -0.322; for RRIRQRPPRLPRPRPRPACTPRP it is -0.475. On to RRIRSRPPRLPRPRPRPYCIPRP, for which the “shrunken log2 fold change” value is -0.26. Regarding RRIRWRPPRLPRPRPRPRRVPRP, the “shrunken log2 fold change” value was determined as 0.122. Take RRIRARPPRLPRPRPRPPLNPRP: the “shrunken log2 fold change” value came to 0.612.

For RRIRMRPPRLPRPRPRPCGMPRP, the “shrunken log2 fold change” value was found to be 0.134. Next, RRIRTRPPRLPRPRPRPWDSPRP: -0.00804. In the case of RRIRMRPPRLPRPRPRPPFEPRP, the “shrunken log2 fold change” value came out at 0.492.
